This is an account of results in US20120121591A1 (priority 2009, published 2012).

Like-named read-outs stand apart in the source and are kept apart here. No end group written: not given here.

The target in one data set is human Kv1.3 (Homo sapiens, UniProt P22001). The class given is cell-based. The following applies: for IC50: read-out: Kv1.3 IC50, whole cell patch clamp.
In the next data set the target is hKv1.3 (Homo sapiens, UniProt P22001). Nature of the data set: cell-based. Format: cell-based. The following applies: read-out: Kv1.3 (IWQ) IC50 (nM, Avg).
Sequence of hKv1.3 (P22001 whole entry): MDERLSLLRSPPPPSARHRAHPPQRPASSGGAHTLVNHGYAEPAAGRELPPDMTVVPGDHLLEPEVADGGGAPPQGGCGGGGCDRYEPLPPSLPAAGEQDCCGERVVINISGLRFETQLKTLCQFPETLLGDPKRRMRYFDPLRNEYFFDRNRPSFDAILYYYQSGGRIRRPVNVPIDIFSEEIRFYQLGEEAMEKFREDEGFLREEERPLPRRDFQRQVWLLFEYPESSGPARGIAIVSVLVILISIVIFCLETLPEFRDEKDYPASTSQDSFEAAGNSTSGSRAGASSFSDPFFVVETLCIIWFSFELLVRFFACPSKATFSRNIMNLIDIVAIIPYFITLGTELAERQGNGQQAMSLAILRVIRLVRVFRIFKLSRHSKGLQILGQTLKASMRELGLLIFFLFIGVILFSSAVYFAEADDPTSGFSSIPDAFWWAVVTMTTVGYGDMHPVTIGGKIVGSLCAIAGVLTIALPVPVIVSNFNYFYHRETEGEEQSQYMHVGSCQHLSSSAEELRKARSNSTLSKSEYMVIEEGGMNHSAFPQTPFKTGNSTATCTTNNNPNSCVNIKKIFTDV
Data set [1] relates to IL-2 secretion from T cells in human whole blood. Format: cell-based.
Data set [2] has as its system IFN-g secretion from T cells in human whole blood. The class given is cell-based.
The format of data set [3] is in vivo, rat. The following applies: Sprague-Dawley rats. The text has this:
Single subcutaneous doses were delivered to animals and serum was collected at various time points after injection. Studies in rats, dogs (beagles), and cynomolgus monkeys involved two to three animals per dose group, with blood and serum collection occurring at various time points over the course of the study. Male Sprague-Dawley (SD) rats (about 0.3 kg), male beagles (about 10 kg) and male cynomolgus monkeys (about 4 kg) were used in the studies described herein (n=3 animals per dose group). Approximately 5 male CD-1 mice were used per dose and time point in our mouse pharmacokinetic studies. Serum samples were stored frozen at −80° C., until analysis in an enzyme-linked immunosorbent assay (ELISA).
Single subcutaneous doses were delivered to animals and serum was collected at various time points after injection. Three animals were used per dose group, with blood and serum collection occurring at various time points over the course of the study. Serum samples were stored frozen at −80° C., until analysis in an enzyme-linked immunosorbent assay (ELISA). […] A brief description of these ELISA protocols is provided: […]

The next data set concerns the target human Kv1.1 (Homo sapiens, UniProt Q09470). The class given is cell-based. The following applies: read-out: Kv1.1 IC50, whole cell patch clamp.
Data set [4] deals with human CD34-derived mast cells.

Sequence of human Kv1.3 (P22001 whole entry): as above
Sequence of human Kv1.1 (Q09470 whole entry): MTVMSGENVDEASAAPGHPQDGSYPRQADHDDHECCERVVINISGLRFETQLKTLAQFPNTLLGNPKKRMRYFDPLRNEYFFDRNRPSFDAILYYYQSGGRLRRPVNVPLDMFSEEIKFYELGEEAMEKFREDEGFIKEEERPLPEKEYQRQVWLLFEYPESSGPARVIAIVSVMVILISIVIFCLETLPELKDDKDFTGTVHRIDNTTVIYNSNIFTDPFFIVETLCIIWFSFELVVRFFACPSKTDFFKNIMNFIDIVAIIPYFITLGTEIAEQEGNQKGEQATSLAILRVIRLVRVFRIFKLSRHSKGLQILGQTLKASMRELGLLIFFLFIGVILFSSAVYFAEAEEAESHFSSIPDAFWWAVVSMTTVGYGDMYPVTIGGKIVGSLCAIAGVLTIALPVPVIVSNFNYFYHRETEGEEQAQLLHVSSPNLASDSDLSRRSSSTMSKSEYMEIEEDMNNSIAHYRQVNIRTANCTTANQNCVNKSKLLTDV

For “20 kDa-PEG-ShK: ShK conjugated with an N-terminal 20 kDa PEG moiety”, the IC50 (in general, the point on the concentration scale where inhibition reaches its midpoint) with human Kv1.3 turned out to be 299 pM; in the data set with hKv1.3, 1.21 nM; in data set [1] (read-out: WB (IL-2) IC50), 0.38 nM; in data set [1] (read-out: WB (IL-2) IC50 (nM, Avg)), 0.387 nM; in data set [2] (read-out: WB (IFNg) IC50), 0.84 nM; in data set [2] (read-out: WB (IFNg) IC50 (nM, Avg)) it was 0.855 nM. The AUC0-inf in data set [3] (SC 0.3 mg/kg) is 6,020 ng · hr · mL^−1; in data set [3] (SC 2 mg/kg), 42374 ± 10,237 ng · hr · mL^−1. In addition, the AUC0-t in data set [3] (SC 0.3 mg/kg) was 6011 ng·h/mL; in data set [3] (SC 2 mg/kg), 42347 ± 10,228 ng · hr · mL^−1. In addition, the Cmax (commonly the highest concentration seen after dosing) in data set [3] (SC 0.3 mg/kg) turned out to be 165 ng/mL; in data set [3] (SC 2 mg/kg) it was 1138 ± 404 ng/mL. For the same substance, the “DNAUC (0-inf)” value in data set [3] (SC 0.3 mg/kg) is listed as 20065; in data set [3] (SC 2 mg/kg), 21187. For the same substance, the mean residence time (MRT) (usually a mean duration of stay, worked out from the concentration-time curve) amounted to 27 h in data set [3] (SC 0.3 mg/kg) and 37 ± 3 h in data set [3] (SC 2 mg/kg). Also, the Tmax (in general, the time from dosing to the highest level) in data set [3] (SC 0.3 mg/kg) was 24 h; in data set [3] (SC 2 mg/kg) it was 24 ± 0 h.
For the substance “Bivalent Fc-L10-ShK[1-35] homodimer: bivalent IgG1 Fc-L10-ShK[1-35] peptibody, Example 1 of WO2008/088422A2 (GGGGSGGGGSRSCIDTIPKSRCTAFQCKHSMKYRLSFCRKTCGTC; not fully specified (N-terminus); ends and bridges not checked; also: homodimer (bivalent Fc peptibody))”, the half-inhibitory concentration (IC50) in the data set with human Kv1.1 was found to be 67 pM; in data set [1] (read-out: WB (IL-2) IC50), 0.386 nM; in data set [2] (read-out: WB (IFNg) IC50) it was 0.32 nM.
In the case of “Bivalent Fc-L10-ShK[2-35] homodimer: bivalent IgG1 Fc-L10-ShK[2-35] peptibody, Example 2 of WO2008/088422A2 (Fc-GGGGSGGGGSSCIDTIPKSRCTAFQCKHSMKYRLSFCRKTCGTC; ends and bridges not checked; also: homodimer via IgG1 Fc)”, the “Kv1.1/Kv1.3 Selectivity Ratio” value with human Kv1.3 is 3.54. For the same substance, the half-maximal inhibitory concentration (IC50) in the data set with human Kv1.3 was 116 pM; in the data set with human Kv1.1, 411 pM; in data set [1] (read-out: WB (IL-2) IC50) it was 0.585 nM; in data set [2] (read-out: WB (IFNg) IC50) it was 2.29 nM. For the same substance, the “Potency Relative to ShK (WB, IL2)” value in data set [1] is listed as 8.73.
In the case of “MCDP: basic secretagogue, positive control (IKCNCKRHVIKPHICRKICGKN; ends and bridges not checked; cysteine pairing not given here; UniProt P01499 28-49, looked up)”, the “Degranulation / histamine release of human CD34-derived mast cells” value in data set [4] is reported as “highly active”.
On the same count and under the same terms, the result for “substance P: basic secretagogue, positive control” reads “highly active”.
